In patent publication US20140011209:

Target: PrP (prion protein) (UniProt P04156)
Assay: EMSA
Conditions: PrP form and source not stated

## GGGAGACAAGACUAGACGCUCAACUACGAACUCAUGACACAAGGAUGCAAUCUCAUCCCG [B-end (PrPSc binding region)]
  Kd: 44.3 nM
